Laboratory results as given in patent US20190092850A1 (NUMAB INNOVATION, published 2019).
Numbering of substitutions follows the chain as printed.

B1: humanized scFv 16-19-B11-sc01 (CDR graft) (scFv)
scFv: MDIQMTQSPSSLSASVGDRVTITCQASESISSWLAWYQQKPGKAPKLLIYKASTLASGVPSRFSGSGSGTDFTLTISSLQPEDFATYYCQGYYLDSSVDDNVFGGGTKLTVLGGGGGSGGGGSGGGGSGGGGSEVQLVESGGGLVQPGGSLRLSCAASGIDFSTYGISWVRQAPGKGLEWIGYIYPDYGITDYASWVNGRFTISRDNSKNTVYLQMNSLRAEDTAVYYCARSGSYYSRGWGAHYFNLWGQGTLVTVSS
B2: humanized scFv 16-19-B11-sc02 (structural graft) (scFv)
scFv: B1 scFv with T23N, D71E, S78G, E82A, A156K, G182A, R205L
B3: humanized scFv 16-19-B11-sc06 (structural graft) (scFv)
scFv: B1 scFv with T23N, A44R, F72Y, G182A, R205L, S208A, K209Q

How the values were obtained:
[1] = molecular target: recombinant Cynomolgus monkey TNFα (Cynomolgus monkey (Macaca fascicularis), UniProt P79337 77-233); test: cell-based or functional assay
recombinant Cynomolgus monkey TNFα, sequence (P79337 77-233 limits assumed): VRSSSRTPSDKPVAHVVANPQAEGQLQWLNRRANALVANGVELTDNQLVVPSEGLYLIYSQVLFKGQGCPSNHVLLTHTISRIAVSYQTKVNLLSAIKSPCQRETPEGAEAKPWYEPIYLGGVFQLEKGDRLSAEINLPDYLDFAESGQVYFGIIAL

[2] = molecular target: Rhesus monkey TNFα (Rhesus monkey (Macaca mulatta), UniProt P48094 77-233); test: cell-based or functional assay
Rhesus monkey TNFα, sequence (P48094 77-233 limits assumed): as the sequence (P79337 77-233 limits assumed) above, with V37L counted along it

[3] = molecular target: T1, recombinant human TNFα (human, UniProt P01375 77-233); test: cell-based or functional assay
T1 sequence (P01375 77-233 limits assumed): as the sequence (P79337 77-233 limits assumed) above, with V37L, T44R, N72T, L138R counted along it

[4] = molecular target: T1, recombinant human TNFα; test: SPR (MASS-1), human TNFα immobilised, scFv injected; screening with 90 nM of scFv
Experimental: (§1) In a second step, for the best performing scFvs, Single Injection Cycle Kinetics (SiCK) were measured from a single injection cycle by simultaneously injecting six analyte samples at different concentrations into each of the eight parallel channels in the MASS-1 system. […] The apparent dissociation (kd) and association (kₐ) rate constants and the apparent dissociation equilibrium constant (KD) were calculated with the MASS-1 analysis software (Analyzer, Sierra Sensors) using one-to-one Langmuir binding model and quality of the fits was monitored based on Chi², which is a measure for the quality of the curve fitting. The smaller the value for the Chi² the more accurate is the fitting to the one-to-one Langmuir binding model. For affinity screenings, results were deemed valid if the Chi² was below 10 for the concentration analyzed. In cases where several scFv concentrations were analyzed, results were deemed valid if the average Chi² over all the concentrations tested was below 10.

[5] = molecular target: T1, recombinant human TNFα; test: SPR (MASS-1), human TNFα immobilised, two-fold serial dilutions of scFv injected
Experimental: Affinity was determined using 2-fold serial dilutions of the respective scFvs.
as §1

| Binder | Species specificity in L929 assay IC50 (ng/ml), cyno [1] [ng/mL] | Species specificity in L929 assay IC50 (ng/ml), rhesus [2] [ng/mL] | Neutralization of TNF in L929 assay, rel. IC50 (IC50, Infliximab (ng/ml)/IC50, scFv (ng/ml)) [3] [ratio] | Neutralization of TNF in L929 assay, rel. IC90 (IC90, Infliximab (ng/ml)/IC90, scFv (ng/ml)) [3] [ratio] | Species specificity in L929 assay IC50 (ng/ml), human [3] [ng/mL] | Kd [4] [nM] | koff [4] [s⁻¹] | kon [4] [M⁻¹ s⁻¹] | Kd [5] [nM] | koff [5] [s⁻¹] | kon [5] [M⁻¹ s⁻¹] |
| --- | --- | --- | --- | --- | --- | --- | --- | --- | --- | --- | --- |
| B1 | 92.1 | 59.7 | 0.6 | 0.2 | 12.1 | 0.7 | 0.00048 | 680000 | – | – | – |
| B2 | – | – | 94 | 4.5 | 0.8 | 0.22 | 0.00016 | 730000 | – | – | – |
| B3 | 1.8 | 1 | 16.2 | 15 | 0.4 | – | – | – | 0.059 | 5.8e-05 | 970000 |
